Test in all cases: cell-based or functional assay
The target of assay [1] is CD51/alphaV integrin (human) (UniProt P06756).
The target of assay [2] is CD36 (human) (UniProt P16671).
Assay [3] addresses Thrombospondin (TSP)-1 (human) (UniProt P07996).
Sequence of UniProt P07996 (P07996 19-1170 A84T limits assumed): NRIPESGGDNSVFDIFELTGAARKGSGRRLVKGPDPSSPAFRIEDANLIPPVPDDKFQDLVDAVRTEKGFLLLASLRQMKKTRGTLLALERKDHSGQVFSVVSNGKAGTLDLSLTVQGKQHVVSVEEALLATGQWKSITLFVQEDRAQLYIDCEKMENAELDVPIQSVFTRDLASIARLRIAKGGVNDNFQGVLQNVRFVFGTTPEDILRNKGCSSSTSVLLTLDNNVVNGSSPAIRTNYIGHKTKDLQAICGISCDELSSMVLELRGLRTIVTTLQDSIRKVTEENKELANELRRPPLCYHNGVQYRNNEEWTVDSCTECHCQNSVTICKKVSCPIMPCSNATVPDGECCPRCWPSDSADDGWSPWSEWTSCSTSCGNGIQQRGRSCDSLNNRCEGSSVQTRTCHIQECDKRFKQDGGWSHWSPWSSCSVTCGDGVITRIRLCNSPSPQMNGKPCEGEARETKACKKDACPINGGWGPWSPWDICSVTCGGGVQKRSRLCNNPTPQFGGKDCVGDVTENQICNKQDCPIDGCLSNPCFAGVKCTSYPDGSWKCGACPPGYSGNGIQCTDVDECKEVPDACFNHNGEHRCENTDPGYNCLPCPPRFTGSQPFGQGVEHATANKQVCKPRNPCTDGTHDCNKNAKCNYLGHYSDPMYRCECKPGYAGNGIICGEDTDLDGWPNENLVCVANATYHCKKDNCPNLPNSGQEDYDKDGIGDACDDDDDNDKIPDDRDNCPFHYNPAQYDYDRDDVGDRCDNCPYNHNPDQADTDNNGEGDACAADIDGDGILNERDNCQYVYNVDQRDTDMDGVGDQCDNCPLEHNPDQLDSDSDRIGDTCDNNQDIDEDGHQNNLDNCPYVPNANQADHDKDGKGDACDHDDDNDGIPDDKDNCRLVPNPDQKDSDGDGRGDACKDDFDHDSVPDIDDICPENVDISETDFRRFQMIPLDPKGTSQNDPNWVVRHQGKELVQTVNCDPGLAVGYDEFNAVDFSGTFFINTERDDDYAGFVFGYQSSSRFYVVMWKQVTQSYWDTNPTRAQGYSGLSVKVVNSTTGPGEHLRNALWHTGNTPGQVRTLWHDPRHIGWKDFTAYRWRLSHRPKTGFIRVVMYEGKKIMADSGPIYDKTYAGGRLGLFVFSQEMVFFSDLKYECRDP

Sequence of UniProt P06756 (P06756 31-1048): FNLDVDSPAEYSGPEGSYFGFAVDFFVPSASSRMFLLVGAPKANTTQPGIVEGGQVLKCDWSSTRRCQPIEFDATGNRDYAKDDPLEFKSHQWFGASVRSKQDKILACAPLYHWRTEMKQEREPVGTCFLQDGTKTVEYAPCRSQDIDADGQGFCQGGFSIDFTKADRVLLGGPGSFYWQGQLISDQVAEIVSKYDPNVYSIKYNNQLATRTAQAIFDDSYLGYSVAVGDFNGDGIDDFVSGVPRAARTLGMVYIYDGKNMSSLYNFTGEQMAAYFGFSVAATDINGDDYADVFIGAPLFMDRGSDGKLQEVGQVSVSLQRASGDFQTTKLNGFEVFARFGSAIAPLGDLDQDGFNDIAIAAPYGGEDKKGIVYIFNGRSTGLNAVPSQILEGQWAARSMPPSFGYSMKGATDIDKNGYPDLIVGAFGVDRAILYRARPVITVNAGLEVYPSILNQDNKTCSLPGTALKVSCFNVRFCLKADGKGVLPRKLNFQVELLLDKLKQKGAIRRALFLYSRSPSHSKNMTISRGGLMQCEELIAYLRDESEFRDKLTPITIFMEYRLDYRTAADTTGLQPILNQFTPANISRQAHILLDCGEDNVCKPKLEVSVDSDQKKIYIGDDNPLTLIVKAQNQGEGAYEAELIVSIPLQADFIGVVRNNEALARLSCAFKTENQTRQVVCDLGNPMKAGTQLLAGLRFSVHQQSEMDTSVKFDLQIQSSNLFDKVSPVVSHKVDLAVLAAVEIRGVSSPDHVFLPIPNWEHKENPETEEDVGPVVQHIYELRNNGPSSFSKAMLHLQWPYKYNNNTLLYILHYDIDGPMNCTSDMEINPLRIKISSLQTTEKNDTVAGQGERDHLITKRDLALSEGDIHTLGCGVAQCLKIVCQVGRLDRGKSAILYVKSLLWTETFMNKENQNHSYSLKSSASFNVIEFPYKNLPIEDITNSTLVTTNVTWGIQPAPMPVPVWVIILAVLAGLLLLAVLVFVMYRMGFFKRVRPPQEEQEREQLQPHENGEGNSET
Sequence of UniProt P16671 (P16671 2-472): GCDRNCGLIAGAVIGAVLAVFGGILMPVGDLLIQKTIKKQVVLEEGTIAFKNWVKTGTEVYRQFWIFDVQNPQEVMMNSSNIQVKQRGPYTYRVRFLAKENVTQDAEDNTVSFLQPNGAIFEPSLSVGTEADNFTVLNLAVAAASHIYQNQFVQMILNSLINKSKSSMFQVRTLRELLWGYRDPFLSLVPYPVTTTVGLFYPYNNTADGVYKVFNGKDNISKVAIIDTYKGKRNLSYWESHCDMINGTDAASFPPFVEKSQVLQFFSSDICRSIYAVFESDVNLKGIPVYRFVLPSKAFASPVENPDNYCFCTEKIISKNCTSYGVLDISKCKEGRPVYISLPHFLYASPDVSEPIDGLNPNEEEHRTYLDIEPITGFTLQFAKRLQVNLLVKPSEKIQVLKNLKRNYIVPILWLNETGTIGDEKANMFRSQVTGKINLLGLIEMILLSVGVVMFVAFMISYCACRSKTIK

In assay [1], “mouse anti-CD51/integrin alphaV monoclonal antibody (clone AV1; Chemicon International, Cat. No. MAB2021Z)” yielded an inhibition of apoptotic monocyte endocytosis by immature dendritic cells (percentage of thrombospondin-1-dependent endocytosis) of 24 percent.

For “mouse IgM anti-human CD36 monoclonal antibody (clone SMO; Serotec, Cat. No. MCA722XZ)”, the inhibition of apoptotic monocyte endocytosis by immature dendritic cells (percentage of thrombospondin-1-dependent endocytosis) in assay [2] came out at 64 percent. Take “azide-free polyclonal goat anti-human thrombospondin-1 N-terminus antibody N-20 (Santa Cruz Biotechnology, Cat No. sc-12312)”: in assay [3], the inhibition of apoptotic monocyte endocytosis by immature dendritic cells (percentage of thrombospondin-1-dependent endocytosis) is 90 percent.

The values above are taken from patent US20100255003A1.
